Test results reported in article PMC8117407 (Science (New York, N.Y.), 2020).

Biological target: the molecule itself
Assay: dual-colour single-molecule co-tracking

B1: mXFP-EpoR coexpressed with JAK2 V617F-mEGFP (complex)
chain 1: APPPNLPDPKFESKAALLAARGPEELLCFTERLEDLVCFWEEAASAGVGPGNYSFSYQLEDEPWKLCRLHQAPTARGAVRFWCSLPTADTSSFVPLELRVTAASGAPRYHRVIHINEVVLLDAPVGLVARLADESGHVVLRWLPPPETPMTSHIRYEVDVSAGNGAGSVQRVEILEGRTECVLSNLRGRTRYTFAVRARMAEPSFGGFWSAWSEPVSLLTPSDLDPLILTLSLILVVILVLLTVLALLSHRRALKQKIWPGIPSPESEFEGLFTTHKGNFQLWLYQNDGCLWWSPCTPFTEDPPASLEVLSERCWGTMQAVEPGTDDEGPLLEPVGSEHAQDTYLVLDKWLLPRNPPSEDLPGPGGSVDIVAMDEGSEASSCSSALASKPSPEGASAASFEYTILDPSSQLLRPWTLCPELPPTPPHLKYLYLVVSDSGISTDYSSGDSQGAQGGLSDGPYSNPYENSLIPAAEPLPPSYVACS
chain 2: MGMACLTMTEMEGTSTSSIYQNGDISGNANSMKQIDPVLQVYLYHSLGKSEADYLTFPSGEYVAEEICIAASKACGITPVYHNMFALMSETERIWYPPNHVFHIDESTRHNVLYRIRFYFPRWYCSGSNRAYRHGISRGAEAPLLDDFVMSYLFAQWRHDFVHGWIKVPVTHETQEECLGMAVLDMMRIAKENDQTPLAIYNSISYKTFLPKCIRAKIQDYHILTRKRIRYRFRRFIQQFSQCKATARNLKLKYLINLETLQSAFYTEKFEVKEPGSGPSGEEIFATIIITGNGGIQWSRGKHKESETLTEQDLQLYCDFPNIIDVSIKQANQEGSNESRVVTIHKQDGKNLEIELSSLREALSFVSLIDGYYRLTADAHHYLCKEVAPPAVLENIQSNCHGPISMDFAISKLKKAGNQTGLYVLRCSPKDFNKYFLTFAVERENVIEYKHCLITKNENEEYNLSGTKKNFSSLKDLLNCYQMETVRSDNIIFQFTKCCPPKPKDKSNLLVFRTNGVSDVPTSPTLQRPTHMNQMVFHKIRNEDLIFNESLGQGTFTKIFKGVRREVGDYGQLHETEVLLKVLDKAHRNYSESFFEAASMMSKLSHKHLVLNYGVCFCGDENILVQEFVKFGSLDTYLKKNKNCINILWKLEVAKQLAWAMHFLEENTLIHGNVCAKNILLIREEDRKTGNPPFIKLSDPGISITVLPKDILQERIPWVPPECIENPKNLNLATDKWSFGTTLWEICSGGDKPLSALDSQRKLQFYEDRHQLPAPKWAELANLINNCMDYEPDFRPSFRAIIRDLNSLFTPDYELLTENDMLPNMRIGALGFSGAFEDRDPTQFEERHLKFLQQLGKGNFGSVEMCRYDPLQDNTGEVVAVKKLQHSTEEHLRDFEREIEILKSLQHDNIVKYKGVCYSAGRRNLKLIMEYLPYGSLRDYLQKHKERIDHIKLLQYTSQICKGMEYLGTKRYIHRDLATRNILVENENRVKIGDFGLTKVLPQDKEYYKVKEPGESPIFWYAPESLTESKFSVASDVWSFGVVLYELFTYIEKSKSPPAEFMRMIGNDKQGQMIVFHLIELLKNNGRLPRPDGCPDEIYMIMTECWNNNVNQRPSFRDLALRVDQIRDNMAG
**Q.** With B1 as the protein, how does the “ligand-independent dimerization relative to ligand-induced dimerization” value read?
**A.** ~25%

B2: mXFP-GHR coexpressed with JAK2 V617F-mEGFP (complex)
chain 1: FSGSEATAAILSRAPWSLQSVNPGLKTNSSKEPKFTKCRSPERETFSCHWTDEVHHGTKNLGPIQLFYTRRNTQEWTQEWKECPDYVSAGENSCYFNSSFTSIWIPYCIKLTSNGGTVDEKCFSVDEIVQPDPPIALNWTLLNVSLTGIHADIQVRWEAPRNADIQKGWMVLEYELQYKEVNETKWKMMDPILTTSVPVYSLKVDKEYEVRVRSKQRNSGNYGEFSEVLYVTLPQMSQFTCEEDFYFPWLLIIIFGIFGLTVMLFVFLFSKQQRIKMLILPPVPVPKIKGIDPDLLKEGKLEEVNTILAIHDSYKPEFHSDDSWVEFIELDIDEPDEKTEESDTDRLLSSDHEKSHSNLGVKDGDSGRTSCCEPDILETDFNANDIHEGTSEVAQPQRLKGEADLLCLDQKNQNNSPYHDACPATQQPSVIQAEKNKPQPLPTEGAESTHQAAHIQLSNPSSLSNIDFYAQVSDITPAGSVVLSPGQKNKAGMSQCDMHPEMVSLCQENFLMDNAYFCEADAKKCIPVAPHIKVESHIQPSLNQEDIYITTESLTTAAGRPGTGEHVPGSEMPVPDYTSIHIVQSPQGLILNATALPLPDKEFLSSCGYVSTDQLNKIMP
chain 2: MGMACLTMTEMEGTSTSSIYQNGDISGNANSMKQIDPVLQVYLYHSLGKSEADYLTFPSGEYVAEEICIAASKACGITPVYHNMFALMSETERIWYPPNHVFHIDESTRHNVLYRIRFYFPRWYCSGSNRAYRHGISRGAEAPLLDDFVMSYLFAQWRHDFVHGWIKVPVTHETQEECLGMAVLDMMRIAKENDQTPLAIYNSISYKTFLPKCIRAKIQDYHILTRKRIRYRFRRFIQQFSQCKATARNLKLKYLINLETLQSAFYTEKFEVKEPGSGPSGEEIFATIIITGNGGIQWSRGKHKESETLTEQDLQLYCDFPNIIDVSIKQANQEGSNESRVVTIHKQDGKNLEIELSSLREALSFVSLIDGYYRLTADAHHYLCKEVAPPAVLENIQSNCHGPISMDFAISKLKKAGNQTGLYVLRCSPKDFNKYFLTFAVERENVIEYKHCLITKNENEEYNLSGTKKNFSSLKDLLNCYQMETVRSDNIIFQFTKCCPPKPKDKSNLLVFRTNGVSDVPTSPTLQRPTHMNQMVFHKIRNEDLIFNESLGQGTFTKIFKGVRREVGDYGQLHETEVLLKVLDKAHRNYSESFFEAASMMSKLSHKHLVLNYGVCFCGDENILVQEFVKFGSLDTYLKKNKNCINILWKLEVAKQLAWAMHFLEENTLIHGNVCAKNILLIREEDRKTGNPPFIKLSDPGISITVLPKDILQERIPWVPPECIENPKNLNLATDKWSFGTTLWEICSGGDKPLSALDSQRKLQFYEDRHQLPAPKWAELANLINNCMDYEPDFRPSFRAIIRDLNSLFTPDYELLTENDMLPNMRIGALGFSGAFEDRDPTQFEERHLKFLQQLGKGNFGSVEMCRYDPLQDNTGEVVAVKKLQHSTEEHLRDFEREIEILKSLQHDNIVKYKGVCYSAGRRNLKLIMEYLPYGSLRDYLQKHKERIDHIKLLQYTSQICKGMEYLGTKRYIHRDLATRNILVENENRVKIGDFGLTKVLPQDKEYYKVKEPGESPIFWYAPESLTESKFSVASDVWSFGVVLYELFTYIEKSKSPPAEFMRMIGNDKQGQMIVFHLIELLKNNGRLPRPDGCPDEIYMIMTECWNNNVNQRPSFRDLALRVDQIRDNMAG
**Q.** For B2, which “ligand-independent dimerization relative to ligand-induced dimerization” value is on record?
**A.** ~10%
